These results are taken from the supplement of paper PMC12042874.

± gives the uncertainty stated by the source.

The nature of the series: amyloid nucleation score (Sup35N fusion, yeast selection) (log enrichment); library NNK1; higher = more nucleation; inactive = no reads after selection. In outline: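 Random libraries were run with three technical output replicates. In each, psi-negative yeast expressing Sup35N fused to peptides of 20 random codons were induced 24 hours with 100 μM copper sulfate and grown 7 days at 30°C on medium lacking adenine and uracil, and input and output plasmid inserts were Illumina-sequenced. The nucleation score is the DiMSum log enrichment of output over input reads, centred on the mode score of non-aggregating sequences, and sequences under 100 input reads were excluded.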
Regarding DEPLNTMRSYACWSSDSSHP, the amyloid nucleation score is 0.139 ± 0.48.

FILCMLMVSAGLFEQEALRY came in with an amyloid nucleation score of 0.506 ± 0.24.

In the case of PEHRSGNKNMYLYRSRDDMN, the amyloid nucleation score was 0.012 ± 0.7.

In turn, ILPLLLMWFTYCDDV came in with an amyloid nucleation score of 2.23 ± 0.6.

As for STLLYGLLAYWTYGFAWLFF, the amyloid nucleation score entry was “inactive”.

TKCHIQLYIALASVAGGSGF came in with an amyloid nucleation score of 2.36 ± 0.29.
